Four molecules from publication PMC466950 (Science Advances, 2024) can be followed below.

Broadly, the stoichiometry N is the number of molecules, sites or subunits per partner or assembly.

The target of data set [1] is human E2 subunit within hCore (human) (UniProt P10515). Description: gel densitometry of the purified complex.
Data set [2] addresses porcine E2 of native PDHc (Sus scrofa domesticus (endogenous in porcine liver)). Put plainly: gel densitometry of the purified complex.
The data set “cryo-EM structure” deals with the molecule itself. Put plainly: cryo-EM structure.

For “human E3BP subunit within hCore (from UniProt O00330 54-501) (natural protein)”, the E3BP chains per 60-subunit core (E3BP molecules per 60-subunit assembly) in data set [1] is 13.
With “porcine E3BP of native PDHc (natural protein)”, the E3BP chains per 60-subunit core (E3BP molecules per 60-subunit assembly) in data set [2] came to 13.

B1: human E2 homo-60-mer (enzyme)
chain: SLPPHQKVPLPSLSPTMQAGTIARWEKKEGDKINEGDLIAEVETDKATVGFESLEECYMAKILVAEGTRDVPIGAIICITVGKPEDIEAFKNYTLDSSAAPTPQAAPAPTPAATASPPTPSAQAPGSSYPPHMQVLLPALSPTMTMGTVQRWEKKVGEKLSEGDLLAEIETDKATIGFEVQEEGYLAKILVPEGTRDVPLGTPLCIIVEKEADISAFADYRPTEVTDLKPQVPPPTPPPVAAVPPTPQPLAPTPSAPCPATPAGPKGRVFVSPLAKKLAVEKGIDLTQVKGTGPDGRITKKDIDSFVPSKVAPAPAAVVPPTGPGMAPVPTGVFTDIPISNIRRVIAQRLMQSKQTIPHYYLSIDVNMGEVLLVRKELNKILEGRSKISVNDFIIKASALACLKVPEANSSWMDTVIRQNHVVDVSVAVSTPAGLITPIVFNAHIKGVETIANDVVSLATKAREGKLQPHEFQGGTFTISNLGMFGIKNFSAIINPPQACILAIGASEDKLVPADNEKGFDVASMMSVTLSCDHRVVDGAVGAQWLAEFRKYLEKPITMLL
Consider B1, for which the “stoichiometry N” value in the data set “cryo-EM structure” turned out to be 60 subunits.

B2: human E2 subunit within hCore (enzyme)
chain: B1 chain
modifications: one lipoamide in each of the two lipoyl domains (fully lipoylated by ESI-MS); N-terminal methionine present
With B2, the binding result in “cryo-EM structure” was “binds”.
